{
  "source": "the nanobody polyreactivity screen of Harvey et al. (2022)",
  "data": [
    {"assay": "yeast display, Sf9 membrane polyspecificity reagent, FACS + sequencing; frameworks hold sequencing errors", "procedure,_shortened": "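In a synthetic yeast display library (Saccharomyces cerevisiae BJ5465), nanobody expression was induced with galactose for 36–48 hours. FACS gates were set low and high (top ~1%) using anti-HA fluorescence for expression and streptavidin fluorescence for binding of the Sf9 membrane reagent. Each polyreactivity label is drawn from the gate of origin.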", "values": [
      {"sequence": "QVQLVESGGGLVQAGGSLRLSCAASGNTFYDNAMGWYRQTPGKERELVAAISYNDGDTYYADSVKGRFTISRDNAKNTVYLQMNSLKPEDTAVYFCAAVVRRVRGARGQEGDNYWGQGTQVTVSS", "polyreactivity (PSR sort gate)": "high polyreactivity"},
      {"sequence": "QVQLVESGGGLVQAGGSLRLSCAASGRTLRWYAMGWYRQAPGKERELVAAIRWSGGSTYYADSVKGRFTISRDNAKNTVYLQMNSLKPEDTAVYYCAAYYVARDRRYPKAYSYEYWGQGTQVTVSS", "polyreactivity (PSR sort gate)": "high polyreactivity"},
      {"sequence": "QVQLVESGGGLVQAGGSLRLSCAASGRNFPTKAMGWYREAPGTERELVAAITRSGSTYYADSVKGRFTISRDNAKNTVYLQMNSLKPEDTAVYYCAAYAYIFLDWGGYPYYLYEYDDWGQGTQVTVSS", "polyreactivity (PSR sort gate)": "low polyreactivity"},
      {"sequence": "QLQLVESGGGLVQAGGSLRLSCAASGVIFRAYAMGSSRQAPGQERELVAAISGRGGSTYYADSVKGRFTISRDNAKNTVYLQMNSLKPEDTAVYYCNVPLIHPGAPYEYWGQGTQVTVSS", "polyreactivity (PSR sort gate)": "high polyreactivity"},
      {"sequence": "QVQLVESGGGLVQAGGSLPLSCAASGRIFNYYAMGWYRQAPGKERDFVATISTSGGSTYYADSVKARFTISRDNAKNTVYLQMISLKPEDTAVYYCAARRYYSLRTFLYWFSKYDYWGQGTQVTVSS", "polyreactivity (PSR sort gate)": "high polyreactivity"},
      {"sequence": "QVQLVESGGGLVQAGGSLRLSCAASGSTFPANAMGCYRQAPGKERELVATISWSCGRTYYADSVKGRFTISRDNAKNTVYLQMNSLKPEDSAVYYCAKGYYWLSTYGDSRYGYWGQGTQVTVSS", "polyreactivity (PSR sort gate)": "high polyreactivity"},
      {"sequence": "QVQLVESGGGLVQAGGSLRLSCAASGSTFYQYVMGWYRQAPGKERELVAAISGSGGSTYYADSVKGRFTISRDNAKNTVYLQMNSLKPEDTAVYYCAADNYFDWYWLFFEYDYWGQGTQVTVSS", "polyreactivity (PSR sort gate)": "high polyreactivity"},
      {"sequence": "QVQLVESGGGLVQAGGSLRLSCAASGRTFVKNAMGWYRQAPGKERELVAISWSTGGTYYADSVKGRFTISRDNAKNTVYLQMNSLKPEDTAVYYCNADWGSVNGYSGYYYWGQGTQVTVSS", "polyreactivity (PSR sort gate)": "low polyreactivity"},
      {"sequence": "QVQLVESGGGLVQAGGSLRLSCAASGSIFPWYTMGWYRQAPGKERELVAAITSSGGGTYYADSVKGRFTISRDNAKNTVYLQINSLKPEDTAVYYCAAGLDWGPEYEYWGQGTQVTVSS", "polyreactivity (PSR sort gate)": "low polyreactivity"},
      {"sequence": "QVQLVESGGGLVQAGGSLRLSCAASGSIFIYNAMGWYRQAPGKERELVAAITWSGGRTYYADSVKGRFTISRDNAKNSVYLQMNSLKPEDTAVYYCNAVWTDAYYSYGYDYWGQGTQVTVSS", "polyreactivity (PSR sort gate)": "low polyreactivity"},
      {"sequence": "QVQLVESGGGLVQAGGSLRLSCAPSGRTYLTYVMGWYRQAPGKERELVAAITRGGRTNYADSVKGRFTISRDNAKNTVYLQMNSLQPEDTAVYYCARDIHSVHNNRDKHDYDDWGQGTLVTVSS", "polyreactivity (PSR sort gate)": "low polyreactivity"},
      {"sequence": "QVQLVESWAGIVQAGGSLRVSCAASGSTFDRYAMGWYRQAPGKERELVAAISWSAGRTYYADSVKGRFTISRDNAKNTVYLQMNSLKPDDTAVYYCAADQIVSGTYDYYWGQGTHVTVSS", "polyreactivity (PSR sort gate)": "low polyreactivity"},
      {"sequence": "QVQLVESGGGLVQAGGSLRLSCAASGSIFIIYAMGWYRQAPGKERELVASITGRGDSTYYADSVKGRFTISRDNAKNTVYLQMNSLKPEDTAVYYCNAGVYVYRVPGKGYYWGQGTQVTVSS", "polyreactivity (PSR sort gate)": "low polyreactivity"},
      {"sequence": "QVQLVESGGGLVQAGGSLRLSCAASGFTFGRNAMGWYRQAPGKERELVASIDWSGGSTYYADSVKGRFTISRDNAKNTVYLQMNSLIPEDTAVDYCAVGPNSVGNRSYGFDYWGQGTQVTVSS", "polyreactivity (PSR sort gate)": "low polyreactivity"},
      {"sequence": "QVQLVESGGGLVQAGGSLRLSCAASGITFYWYAMGWYRQAPGKERELVAAISSGGSTYYADSVKGRFTISRDNAKNTVYLQMNSLKPEDTAVYYCAAAFRYTPLSDHGYWGQGTQVTVSS", "polyreactivity (PSR sort gate)": "high polyreactivity"},
      {"sequence": "QVQLVESGAGLVQAGGSLRLSCAASGSIFDHYAMGWYRQAPGKERELVAAISSSGGSTYYADSVKGRFTISRDNAKNTVYLQMNSLKPEDTAVYSCAARAGYTRYGYWGQGTQVTVSS", "polyreactivity (PSR sort gate)": "high polyreactivity"},
      {"sequence": "QVQLVESGGGLVQAGGSLRLSCAASGFTFTTYDMGWYRQAPGKERELVAAINSGGSTNYADSVKGRFTISRDNAKNTVYLQMNSLKPEDTAVYYCAAEFYWYYNNFFEDRYYWGQGTQVTVSS", "polyreactivity (PSR sort gate)": "low polyreactivity"},
      {"sequence": "QVQLVESGGGLVQAGGSLRLSCAASGFIFRVNAMGWYRQATGKERELVAAISASGGTTYYADSVKGRFTISRDIAKNTVYLQMNSLKPEDTAVYYCNAPSRTRYDYWGQGTQVTVSS", "polyreactivity (PSR sort gate)": "low polyreactivity"},
      {"sequence": "QVQLVESGGGLVQAGGSLRLSCAASGSTFAGNTMGWYRQAPGKERELVAAITWNGGRTRYADSVKGRFTISRDNAKNTVYLQMNSLKPEDTAVYYCNAGPWYENMDYWGQGTQVTVSS", "polyreactivity (PSR sort gate)": "high polyreactivity"},
      {"sequence": "QVQLVESGGGLVQAGGSLRLSCAASGSIVVRNAMGWYRQAPGKERELVAAITYRGGSTYYADSVKGRFTISRDNAKNTVYLQMNSLNPEDTAVYYCFDVNTDVLSRVYRGWGYYYWGQGTQVTVSS", "polyreactivity (PSR sort gate)": "low polyreactivity"},
      {"sequence": "QVQLVETGGGLVQAGGSLRLSCAASGRTFKFYAMGWYRQAPGKEREFVAVINRSGVNTHYADSVKVRFTISRDNAKNTVYLQMNSLKPEDTAVYYCAKYVYPLDHVAGYDYWGQGTQVTVSS", "polyreactivity (PSR sort gate)": "low polyreactivity"},
      {"sequence": "QVQLVESGGGLVQAGGSLRLSSAASGFIFQKYVMGWSRQAPGKETEMVAVISRSGDSTRYADSVQGRFTISRDNAKNTVYLQMNSLKPEDTAVYYCAAASAKLTGTGYYYWGQGTQVTVSS", "polyreactivity (PSR sort gate)": "high polyreactivity"},
      {"sequence": "QVQLVESGGGLVQAGGSLRLSCAASGRIFKYYAMGWYRQAPGKERELVAAISASGGSTYYADSVKGRFTISRDNAKNTVYLQMNSLKPEDTAVYYCAAATRRKRIWTATTRSEYWGQGTQVTVSS", "polyreactivity (PSR sort gate)": "high polyreactivity"},
      {"sequence": "QVQLVESGGGLVQAGGSLRLSCAASGTTFAYNAMGWYIQAPGKEREMVAAISTSGGSTNYADSVKGRYTISRDNAMNTVYLQMNSLKPEDTAVYYCAARPKTPSITRYGYWGQGTQVTVSS", "polyreactivity (PSR sort gate)": "high polyreactivity"},
      {"sequence": "QVQLVESGGGLVQAGGSLRLSCAASGYTFTRYAMGWYRQAPGKEREFVAAITSGGGSTYYADSVKGRFTISRDNAKNTVYLQMNSLKPEDTAVYYCAATRLVSYHYPDLDSQQGGYWGQGTQVTVSS", "polyreactivity (PSR sort gate)": "low polyreactivity"},
      {"sequence": "QVQLVESGGGLVQAGGSLRLSCAASGSIFRINAMGWYITAPGKERELVAAISWSGGSTYYADSVKGRFTISRDNAKNTVYLQMNSLKPEDTAVYYCAAVVSKSSFDYWGQGTQVTVSS", "polyreactivity (PSR sort gate)": "low polyreactivity"},
      {"sequence": "QVQLVASGGGLVQAGGSLRLSCAASGFTFYYYAMGWYRKAPGKERELVAGISGRGGTTYYADSVKGRFTISRDNAKNTFYLQLNSLKPEDTAVYDCAARKVRARSKFEYWGQGNQVTVSS", "polyreactivity (PSR sort gate)": "high polyreactivity"},
      {"sequence": "QVQLVESGGGLVQAGGSLRLSCAASGFTFFSNAMGWYIQAPGKERELVAAITSSGGSTYADSVKGRFTISRDNAKNTVYLQMNSLKPEDTAVYYCAADAQAPPGGFKEYDYWGQGTQVTVSS", "polyreactivity (PSR sort gate)": "low polyreactivity"},
      {"sequence": "QVQLVESGGGLVQAGGSLRLSCAASGFTFYSNAMGWYRQAPGKERELVAVINSDDDSTYYADSVKGRFTISRDNAKNTVYLQMNSLKPEDTAVYYCNKVWRVGKYPYSDRYYFGGGYWGQGTQVTVSS", "polyreactivity (PSR sort gate)": "high polyreactivity"},
      {"sequence": "QVQLVESGGGLVQAGGSLRLSCAASGSTFSYYAMGWYRQAPGKERELVARISWRGGSTYYADSVKGRFTISRDNAKNTVYLQMNSLKPEDTAVYYCAARRSGTYYGTYKSNGRNYWGQGTQVTVSS", "polyreactivity (PSR sort gate)": "high polyreactivity"},
      {"sequence": "QVQLVESGGGLVQAGGSLRLSCAASGFTFGLYAMGWYRQAPGKERELVASITWSGGSTYYADSVKGRFTISRDNAKNTVYLQMNSLKPEDTAVYDCAKRLYLITWAASSADDYWGQGTQVTVSS", "polyreactivity (PSR sort gate)": "low polyreactivity"},
      {"sequence": "QVQIVDSGGGLVQAGGSLRLSCAASGRNFGYYAMGWYRQAPGKERELVAAISYSGGSTYYADSVKGRFTISRDMAKNTVYCQMNSLKPEDTAVYYCAAPGRWPQRYGYWGLGTQVTVSS", "polyreactivity (PSR sort gate)": "high polyreactivity"},
      {"sequence": "QVQLVESGGGLVQAGGSLRLSCAASGNTFPRYAMGWYRQAPGKERELVASISWSGGSTYYADSVKGRFTISRDNAKNTVYLQMNSLKPEDTAVYYCNARRAYRAWYYPYDYWGQGTQVTVSS", "polyreactivity (PSR sort gate)": "high polyreactivity"},
      {"sequence": "QVQLVETGGGLVQAGGSLRLSCAASGSTFGINAMGWYRQAPGKERELVAAITASGCRTYYADSVKGRFTISRDNAKNTVYLQMNSLKPEDNAVYYCAARGTYYRRYDYWGQGTQVTVSS", "polyreactivity (PSR sort gate)": "low polyreactivity"},
      {"sequence": "QVQLVESGGGLVQAGGSLRLSCAASGRIFNRYAMGWYRQAPGKEREFVAAISVRGGTTYYADSVKGRFTISRDNAKNTVYLQMNSLKPEDTAVYYCAARKISKYDYWGQGTQVTVSS", "polyreactivity (PSR sort gate)": "high polyreactivity"},
      {"sequence": "QVQLVESAGGLVQAGGSISLSCAASGIIFRYYAMGSYRQAPGKERELVAVITGRGGGTYYADSVKGRFTISRDNAKNTVYLQMNSLKPEDTAVYYCAKDFTGHYPKGFDYWGQGTQVTVSS", "polyreactivity (PSR sort gate)": "low polyreactivity"},
      {"sequence": "QVQLVESGGGLVQAGGSLRLSCAASGFTFRTYAMGWYRQAPGKERELVAAITRNGGTYYADSVKGRFTISRDNAKNTVYLQMHSLNPEDTAVYYCATDPAYWGDQPPEYDYWGQGTQVTVSS", "polyreactivity (PSR sort gate)": "low polyreactivity"},
      {"sequence": "QVQLVESGGGLVQAGGSLRLSCAASRRIYGGNAMGLNRKAPGKERELVAAINSSGGRTYYADSVKGRFKISRDNAKNTVYLQMKSLKTEDTAVYYCAGRVGCNWYDYWGQGTQVPVSS", "polyreactivity (PSR sort gate)": "high polyreactivity"},
      {"sequence": "QLKLEESGGGLVQAGGSLRLSCAASGFIFSYNAMGWYRQAPGKERELDAAISSIGSGTYYADSVKGRFTISRDNAKYTVYLQMNSLKPEDTAVYYCAKYLRPRIGSRYYYWGQGTQVTVSS", "polyreactivity (PSR sort gate)": "high polyreactivity"},
      {"sequence": "QVQLVESGGGLVQAGGSLRLSSAASGSIFYKNAKGWYRQAPGKEREFVAGISRRGGSTYYADSVKGRFTISLDNAKNTVYLQMNSLKPEDTAVYYCASSQSGGYDYWGQGTQVTVSS", "polyreactivity (PSR sort gate)": "high polyreactivity"},
      {"sequence": "QVQLVESGGGLVQAGGSLRLSCAASGFTFENYAMGWYRQAPGKEREFVAAISTRGTSTYYADSVKGRFTISRDNAKNTVYLQMNSLKPEDTAVYYCAARFYYWGQGTQVTVSS", "polyreactivity (PSR sort gate)": "high polyreactivity"},
      {"sequence": "QVQLVESGGGLVQAGGSLRLSCAASGSTFRRYAMGWYRQAPWKERELVAAITRRGITYYADSVKGRFTISRDNAKNTVYFQMNSLKPEDTAVYYCAATTFGPYALYPRYYYWGQGTQVTVSS", "polyreactivity (PSR sort gate)": "high polyreactivity"},
      {"sequence": "QVQLVDSGGGLVQAGGSLRLSCAASGRTFKRYDMGWYRQAPRKEREFVAAISWTGGSTYYADTVKGRFTISRDNEKNTVYLQMNSLKPEDTAVYYCARKFLWKGFDYWGQGTQVTVSS", "polyreactivity (PSR sort gate)": "low polyreactivity"}
    ]}
  ]
}
